Assay results published in paper PMC6092398, “Revealing circadian mechanisms of integration and resilience by visualizing clock proteins working in real time” (Nature Communications, 2018).
Changes are numbered by the printed parent chain. Blank lines part the entries; values can stand above or below the molecule they belong to.

How the values were obtained:
[1] = biological target: KaiA (UniProt Q79PF6); test: HS-AFM single-molecule dwell time
[2] = biological target: KaiA (UniProt Q79PF6); test: HS-AFM single-molecule dwell time; remark: listed apart in the source
[3] = biological target: the molecule itself; test: high-speed atomic force microscopy (HS-AFM); KaiC^WT alone immobilised on bare mica (N-terminal side seen), images compared with an AFM image simulated from the crystal structure
[4] = biological target: T1, KaiC-AE (mimic of S/pT) (S. elongatus, UniProt Q79PF4 1-519, KaiC-AE (S431 to A) | KaiC-AE (T432 to E)); test: high-speed atomic force microscopy (HS-AFM); as Fig. 3 but with 1 mM ATP in the observation buffer (Supplementary Fig. 4); KaiC phospho-mimics on AP-mica, KaiA in solution; settings: both partners purified
T1 construct: KaiC of Synechococcus elongatus with the two phosphorylation sites S431 and T432 changed to A and E; the two substitutions are read from these; source: E. coli BL21 or DH5α, pGEX-based construct, purified (glutathione-agarose, HRV3C cleavage on the column, Q Sepharose); not shown: GST, N-terminal, cleaved
T1 sequence: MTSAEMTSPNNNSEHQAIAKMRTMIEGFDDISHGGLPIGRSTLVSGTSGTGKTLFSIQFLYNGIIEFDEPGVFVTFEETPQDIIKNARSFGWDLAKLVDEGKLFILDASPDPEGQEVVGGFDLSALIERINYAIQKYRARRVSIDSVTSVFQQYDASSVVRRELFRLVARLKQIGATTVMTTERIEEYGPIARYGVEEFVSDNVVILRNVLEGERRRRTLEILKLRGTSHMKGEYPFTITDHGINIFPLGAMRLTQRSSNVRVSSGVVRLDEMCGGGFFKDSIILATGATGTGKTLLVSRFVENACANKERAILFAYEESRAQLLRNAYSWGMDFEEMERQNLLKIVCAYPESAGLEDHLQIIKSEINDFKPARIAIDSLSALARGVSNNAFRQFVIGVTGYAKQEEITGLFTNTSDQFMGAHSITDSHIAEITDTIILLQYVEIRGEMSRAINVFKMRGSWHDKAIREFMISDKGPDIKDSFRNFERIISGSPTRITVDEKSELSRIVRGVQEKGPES

[5] = biological target: T2, KaiC-AA (mimic of S/T) (S. elongatus, UniProt Q79PF4 1-519, KaiC-AA (S431 to A) | KaiC-AA (T432 to A)); test: as above; settings: both partners purified
T2 construct: KaiC of Synechococcus elongatus with the two phosphorylation sites S431 and T432 changed to A and A; the two substitutions are read from these; source: E. coli BL21 or DH5α, pGEX-based construct, purified (glutathione-agarose, HRV3C cleavage on the column, Q Sepharose); not shown: GST, N-terminal, cleaved
T2 sequence: T1 sequence with E432A

[6] = biological target: T3, KaiC-DE (mimic of pS/pT) (S. elongatus, UniProt Q79PF4 1-519, KaiC-DE (S431 to D) | KaiC-DE (T432 to E)); test: as above; settings: both partners purified
T3 construct: KaiC of Synechococcus elongatus with the two phosphorylation sites S431 and T432 changed to D and E; the two substitutions are read from these; source: E. coli BL21 or DH5α, pGEX-based construct, purified (glutathione-agarose, HRV3C cleavage on the column, Q Sepharose); not shown: GST, N-terminal, cleaved
T3 sequence: T1 sequence with A431D

[7] = biological target: T1, KaiC-AE (mimic of S/pT); test: high-speed atomic force microscopy (HS-AFM); KaiC phospho-mimics on AP-mica (CII end up), 1 μM KaiA in solution, no ATP; dwell time of the KaiA-bound state from images at 10 fps, fitted to a first order model; 20 mM Tris-HCl pH 8.0, 5 mM MgCl2, 25-28 °C; settings: both partners purified
[8] = biological target: T3, KaiC-DE (mimic of pS/pT); test: as above; settings: both partners purified
[9] = biological target: T4, KaiC-DA (mimic of pS/T) (S. elongatus, UniProt Q79PF4 1-519, KaiC-DA (S431 to D) | KaiC-DA (T432 to A)); test: as above; settings: both partners purified
T4 construct: KaiC of Synechococcus elongatus with the two phosphorylation sites S431 and T432 changed to D and A; the two substitutions are read from these; source: E. coli BL21 or DH5α, pGEX-based construct, purified (glutathione-agarose, HRV3C cleavage on the column, Q Sepharose); not shown: GST, N-terminal, cleaved
T4 sequence: T1 sequence with A431D, E432A

[10] = reference: KaiC-AA (S431A/T432A), sites T432
[11] = reference: KaiC-AA (S431A/T432A), sites S431
[12] = reference: KaiC-AA (S431A/T432A), sites S431,T432
[13] = reference: KaiC-AE (S431A/T432E), sites S431

other: bound-state lifetime τbound [1, 10]: 1 s
other: bound-state lifetime τbound [2, 10]: 0.95 s
Molecule: KaiC (from UniProt Q79PF4) KaiC-AE (S431A/T432E)

other: bound-state lifetime τbound [1, 11]: 0.43 s
other: bound-state lifetime τbound [2, 11]: 0.43 s
Molecule: KaiC (from UniProt Q79PF4) KaiC-DA (S431D/T432A)

other: bound-state lifetime τbound [1, 12]: 0.26 s
other: bound-state lifetime τbound [2, 12]: 0.31 s
other: bound-state lifetime τbound ([2]; reference: KaiC-DA (S431D/T432A), sites T432): weaker; reference 0.43 ± 0.01
Molecule: KaiC (from UniProt Q79PF4) KaiC-DE (S431D/T432E)
other: bound-state lifetime τbound [1, 13]: weaker; reference 1.00 ± 0.15
other: bound-state lifetime τbound [2, 13]: weaker; reference 0.95 ± 0.04

other: bound-state lifetime τbound ([1]; reference: KaiCWT from trough phosphorylation phase (15 h), sites S431,T432): weaker; reference 0.77 ± 0.05
Molecule: KaiC (from UniProt Q79PF4) KaiCWT from peak phosphorylation phase (24 h)

other: bound-state lifetime τbound ([1]; reference: hypo-phosphorylated KaiCWT (~27% phosphorylated), sites S431,T432): weaker; reference 1.12 ± 0.03
Molecule: KaiC (from UniProt Q79PF4) hyperphosphorylated KaiCWT (~81% phosphorylated)

B1: native wild-type KaiC hexamer (KaiC^WT) (natural protein, S. elongatus)
chain: T1 sequence with A431S, E432T
notes: circadian clock protein KaiC of Synechococcus elongatus, native (unmutated); also called native KaiC; C6; source: E. coli BL21 or DH5α, pGEX-based construct, purified (glutathione-agarose, HRV3C cleavage on the column, Q Sepharose; 5 mM MgCl2 and 1 mM ATP throughout); not shown: GST, N-terminal, cleaved
stoichiometry N [3]: 6

binding result [5]: binds
τ_(bound) (dwell time of the bound state) [6]: 0.31 s
τ_(bound) (dwell time of the bound state) [8]: 0.26 s
τ_(bound) (dwell time of the bound state) [9]: 0.43 s
B2: KaiA (natural protein, S. elongatus, UniProt Q79PF6 1-284, looked up)
chain: MLSQIAICIWVESTAILQDCQRALSADRYQLQVCESGEMLLEYAQTHRDQIDCLILVAANPSFRAVVQQLCFEGVVVPAIVVGDRDSEDPDEPAKEQLYHSAELHLGIHQLEQLPYQVDAALAEFLRLAPVETMADHIMLMGANHDPELSSQQRDLAQRLQERLGYLGVYYKRDPDRFLRNLPAYESQKLHQAMQTSYREIVLSYFSPNSNLNQSIDNFVNMAFFADVPVTKVVEIHMELMDEFAKKLRVEGRSEDILLDYRLTLIDVIAHLCEMYRRSIPRET
notes: circadian clock protein KaiA of Synechococcus elongatus, native (unmutated); also called native KaiA; KaiA dimer; source: E. coli BL21 or DH5α, pGEX-based construct, purified (glutathione-agarose, HRV3C cleavage on the column, Q Sepharose); not shown: GST, N-terminal, cleaved
τ_(bound) (dwell time of the bound state) [4]: 0.95 s
τ_(bound) (dwell time of the bound state) [7]: 1 s
